Measurements: patent US20210269509A1 (Genmab, published 2021)

Molecular target: T1, Protein L (recombinant protein L immobilized on a matrix; HiTrap Protein L, GE Healthcare) (Finegoldia magna)
T1 construct: also called Protein L resin; Finegoldia magna Protein L
T1 chain: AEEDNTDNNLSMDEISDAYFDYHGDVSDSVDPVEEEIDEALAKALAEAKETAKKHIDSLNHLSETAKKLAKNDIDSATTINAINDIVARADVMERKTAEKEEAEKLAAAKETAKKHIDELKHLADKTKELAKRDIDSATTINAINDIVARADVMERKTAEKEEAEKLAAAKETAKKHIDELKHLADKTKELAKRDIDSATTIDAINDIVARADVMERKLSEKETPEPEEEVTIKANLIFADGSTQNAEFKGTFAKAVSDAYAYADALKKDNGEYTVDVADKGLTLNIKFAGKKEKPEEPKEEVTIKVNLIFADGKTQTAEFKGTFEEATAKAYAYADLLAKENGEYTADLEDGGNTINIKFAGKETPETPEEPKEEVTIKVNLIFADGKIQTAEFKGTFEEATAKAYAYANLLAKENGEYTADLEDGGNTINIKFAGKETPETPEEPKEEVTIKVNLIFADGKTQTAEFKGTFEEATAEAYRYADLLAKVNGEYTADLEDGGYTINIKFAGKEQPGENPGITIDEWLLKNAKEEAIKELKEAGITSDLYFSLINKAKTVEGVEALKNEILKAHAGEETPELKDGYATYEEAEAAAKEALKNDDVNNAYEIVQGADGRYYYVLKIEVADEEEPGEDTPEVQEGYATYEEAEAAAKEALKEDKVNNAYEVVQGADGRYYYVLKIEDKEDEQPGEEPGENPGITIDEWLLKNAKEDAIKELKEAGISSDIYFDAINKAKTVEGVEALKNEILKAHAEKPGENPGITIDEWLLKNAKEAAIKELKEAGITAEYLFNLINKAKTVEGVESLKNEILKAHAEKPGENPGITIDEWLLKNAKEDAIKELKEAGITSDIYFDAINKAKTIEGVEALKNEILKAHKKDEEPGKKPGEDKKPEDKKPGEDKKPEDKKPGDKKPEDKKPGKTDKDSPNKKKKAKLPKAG
Experiment: HiTrap Protein L (5 mL) chromatography of purified antibody, step elution at pH 3.5, 3.0 and 2.5, A280 trace
Method: 10 mL of the supernatant was loaded onto the HiTrap Protein L column. […] The column was washed with PBS and specifically bound material was eluted sequentially with 0.1 M glycine-HCl pH 3.5, 3.0 and 2.5 and neutralized with a few drops of 2M Tris pH 9.0. The column was washed using 15 mM sodium hydroxide.

binding result: no binding
B1: IgG1-2F8-F405L-S12P (antibody, name in EU numbering)
heavy: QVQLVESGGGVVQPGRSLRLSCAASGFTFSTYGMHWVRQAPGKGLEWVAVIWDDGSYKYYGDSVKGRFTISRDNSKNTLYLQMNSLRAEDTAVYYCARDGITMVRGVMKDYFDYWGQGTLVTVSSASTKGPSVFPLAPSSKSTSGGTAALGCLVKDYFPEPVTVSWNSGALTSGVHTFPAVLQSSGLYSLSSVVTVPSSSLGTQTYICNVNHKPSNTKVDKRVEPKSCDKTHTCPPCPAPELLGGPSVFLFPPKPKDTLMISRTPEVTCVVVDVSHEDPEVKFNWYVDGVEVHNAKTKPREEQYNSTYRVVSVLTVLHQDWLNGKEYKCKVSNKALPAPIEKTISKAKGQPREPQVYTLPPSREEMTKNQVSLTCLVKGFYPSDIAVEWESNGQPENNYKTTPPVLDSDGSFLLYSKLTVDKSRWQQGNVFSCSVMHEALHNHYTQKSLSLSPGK
light: AIQLTQSPSSLPASVGDRVTITCRASQDISSALVWYQQKPGKAPKLLIYDASSLESGVPSRFSGSESGTDFTLTISSLQPEDFATYYCQQFNSYPLTFGGGTKVEIKRTVAAPSVFIFPPSDEQLKSGTASVVCLLNNFYPREAKVQWKVDNALQSGNSQESVTEQDSKDSTYSLSSTLTLSKADYEKHKVYACEVTHQGLSSPVTKSFNRGEC
notes: IgG1m(f), kappa; also called IgG-2F8-F405L-S12P; IgG1-2F8-S12P
